Laboratory results: the supplement of paper PMC10126150
± gives the standard deviation of the averaged measurements.

Tested on: ATP
Assay: switch fluorescence ratio, 500 uM ATP over buffer (Cy3 cluster intensity, sum of 5 cycles each) (fold (ratio)); higher = stronger signal-on switching upon ATP binding; sequences stand for … in TCGTCGGCAGCGTCAGATGTGTATAAGAGACAGTTTTTTTTTTTTTTTTTTTTTTTTT…TC
Conditions: aptamer strand: ATP DNA aptamer (quencher-CACCTGGGGGAGTATTGCGGAGGAAGG + anchor), 100 nM annealed; ATP concentration: 500 uM
Procedure, shortened: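 The fluorescence ratio divides summed target-cycle Cy3 intensity by summed buffer-cycle Cy3 intensity for each cluster and is averaged per switch-domain sequence. Cy3-labelled switching-strand clusters on a modified Illumina MiSeq flow-cell were annealed to 100 nM quencher-labelled ATP aptamer, then imaged in selection buffer and again after 15 min with 500 uM ATP at 22 °C. Five such cycles were run, with NaOH stripping and re-annealing between them, and clusters outside 100-1000 RFU were excluded.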
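Further: ATP exposure 15 min at 22 °C before imaging.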

Sequence | switch fluorescence ratio
TTAGGGGGCG | 1.03 ± 0.045
TTAGGGGTCC | 0.998 ± 0.022
TTAGGGGTGC | 1.07 ± 0.037
TTAGGGGTTG | 0.979 ± 0.024
TTAGGGGTTT | 0.997 ± 0.041
TTAGGGTCCC | 1.02 ± 0.016
TTAGGGTGCA | 1.01 ± 0.025
TTAGGTACCG | 1.012 ± 0.0016
TTAGGTCCGG | 1.008 ± 0.0092
TTAGGTGAGG | 0.993 ± 0.026
TTAGGTGGAG | 0.977 ± 0.031
TTAGGTGTTA | 1.03 ± 0.022
TTAGGTTCAG | 0.9774 ± 0.0084
TTAGTACATG | 0.976 ± 0.019
TTAGTACTGC | 1.03 ± 0.02
TTAGTAGGGG | 1 ± 0.021
TTAGTAGTGC | 1.02 ± 0.035
TTAGTAGTTG | 1.02 ± 0.028
TTAGTATTTA | 1.01 ± 0.056
TTAGTCCAGA | 1.007 ± 0.0018
TTAGTCGGGA | 1.023 ± 0.0028
TTAGTGACTA | 1.01 ± 0.031
TTAGTGATCT | 0.998 ± 0.015

Sequence | switch fluorescence ratio
TTAGTGGGTA | 0.981 ± 0.082
TTAGTGTCGT | 1.02 ± 0.017
TTAGTTAAAG | 1 ± 0.014
TTAGTTATAC | 1.78 ± 0.59
TTAGTTATTC | 1.022 ± 0.0032
TTAGTTGGTC | 0.996 ± 0.029
TTAGTTGTGG | 0.982 ± 0.02
TTAGTTTAAT | 1.02 ± 0.024
TTAGTTTATG | 0.981 ± 0.017
TTAGTTTCTT | 0.999 ± 0.017
TTAGTTTTAC | 1.004 ± 0.0029
TTAGTTTTCT | 0.96 ± 0.013
TTAGTTTTTT | 1.01 ± 0.019
TTATAAAAAC | 0.982 ± 0.076
TTATAAAAAG | 0.974 ± 0.042
TTATAACTTT | 1.02 ± 0.028
TTATAAGAGG | 0.979 ± 0.0047
TTATAAGCGA | 1.02 ± 0.035
TTATAAGGAA | 0.981 ± 0.015
TTATAAGGGA | 0.977 ± 0.049
TTATAAGTTA | 0.9814 ± 0.0043
TTATAAGTTT | 1.03 ± 0.078
TTATAATAGT | 1 ± 0.013

Sequence | switch fluorescence ratio
TTATAATTGT | 0.9966 ± 0.0022
TTATAATTTC | 1.009 ± 0.0023
TTATACGCTT | 1.1 ± 0.017
TTATAGAGGT | 1.01 ± 0.011
TTATAGGGCG | 1.02 ± 0.047
TTATATCAGA | 1.016 ± 0.0083
TTATATGTAG | 0.993 ± 0.024
TTATATGTGT | 1.01 ± 0.039
TTATATGTTA | 1.03 ± 0.055
TTATATTACT | 1.01 ± 0.027
TTATATTTAG | 0.988 ± 0.011
TTATATTTAT | 1.03 ± 0.069
TTATATTTTG | 0.998 ± 0.017
TTATATTTTT | 1.02 ± 0.023
TTATCACTGG | 1 ± 0.07
TTATCAGTGT | 0.972 ± 0.063
TTATCATTTA | 1.01 ± 0.03
TTATCGGTAT | 1 ± 0.042
TTATCTGATT | 0.9952 ± 0.0017
TTATCTGCCT | 1.06 ± 0.072
TTATGAACTT | 1 ± 0.035
TTATGAAGAC | 1.025 ± 0.01
TTATGAAGGA | 1.02 ± 0.021

Sequence | switch fluorescence ratio
TTATGAAGGT | 1.02 ± 0.06
TTATGATTCT | 0.972 ± 0.025
TTATGCGGGG | 0.995 ± 0.046
TTATGCTGGG | 0.974 ± 0.012
TTATGGGACA | 1.026 ± 0.0097
TTATGGGATT | 0.993 ± 0.019
TTATGGGCGG | 1.02 ± 0.047
TTATGGTCGG | 0.984 ± 0.016
TTATGGTGCA | 0.99 ± 0.023
TTATGGTGGT | 0.973 ± 0.027
TTATGTAATC | 1.19 ± 0.25
TTATGTCCGG | 1.02 ± 0.025
TTATGTGACT | 1.01 ± 0.021
TTATGTGCGA | 1.02 ± 0.013
TTATGTGTCG | 0.983 ± 0.033
TTATGTGTGT | 0.996 ± 0.028
TTATGTTAAA | 1.01 ± 0.022
TTATGTTTGG | 1.02 ± 0.033
TTATGTTTTT | 1.01 ± 0.025
TTATTAAGGG | 0.98 ± 0.047
TTATTAATAC | 1.177 ± 0.0012
TTATTACGTG | 1.01 ± 0.023
TTATTAGCTT | 0.9916 ± 0.004

Sequence | switch fluorescence ratio
TTATTAGTAG | 1.002 ± 0.0049
TTATTAGTGC | 1.03 ± 0.1
TTATTAGTTT | 0.994 ± 0.017
TTATTATACG | 1.01 ± 0.054
TTATTATTGA | 0.989 ± 0.011
TTATTCGGCG | 1 ± 0.032
TTATTGATCC | 0.9978 ± 0.0019
TTATTGGCGG | 1.015 ± 0.0097
TTATTGGTTT | 1.048 ± 0.0096
TTATTGTTGA | 1.02 ± 0.011
TTATTTATTA | 1.0338 ± 0.00047
TTATTTCAAC | 0.9728 ± 0.0052
TTATTTGACT | 1.01 ± 0.041
TTATTTGATT | 1.01 ± 0.029
TTATTTGCCT | 1.17 ± 0.18
TTATTTGCTG | 1.02 ± 0.056
TTATTTGGCC | 0.997 ± 0.032
TTATTTGTGG | 0.97 ± 0.02
TTATTTGTTT | 0.977 ± 0.018
TTATTTTAAA | 1.01 ± 0.024
TTATTTTCAC | 1.04 ± 0.036
TTATTTTGGT | 1.01 ± 0.035
TTATTTTGTA | 1.03 ± 0.013

Sequence | switch fluorescence ratio
TTCAAACGAG | 1.01 ± 0.031
TTCAAAGTTT | 0.993 ± 0.015
TTCAAATGGG | 0.9991 ± 0.0053
TTCAACTTAT | 0.954 ± 0.049
TTCAAGCGTT | 0.982 ± 0.019
TTCAAGCTTT | 1.01 ± 0.022
TTCAAGGATA | 0.986 ± 0.05
TTCAAGTGAA | 0.979 ± 0.012
TTCAAGTTAT | 1.04 ± 0.045
TTCAAGTTGG | 0.974 ± 0.024
TTCAATAGGA | 1.03 ± 0.045
TTCAATGGCA | 1.0245 ± 0.00028
TTCAATTTGG | 1.01 ± 0.021
TTCACAAGG | 1.0218 ± 0.00034
TTCACGGCCC | 1.04 ± 0.013
TTCACGGGAT | 1.06 ± 0.035
TTCACGGGTT | 1.01 ± 0.021
TTCACGGTCG | 1.03 ± 0.024
TTCACTATTT | 1.02 ± 0.028
TTCAGCTTTT | 0.984 ± 0.037
TTCAGGATA | 1.01 ± 0.033
TTCAGGGGGG | 1.02 ± 0.033
TTCAGGGTCC | 1.03 ± 0.035

Sequence | switch fluorescence ratio
TTCAGTGGTG | 0.965 ± 0.053
TTCAGTGTTA | 1.017 ± 0.0058
TTCAGTTCGA | 0.9971 ± 0.0057
TTCAGTTGGT | 0.987 ± 0.017
TTCATAGCTT | 1.02 ± 0.043
TTCATATGCG | 0.995 ± 0.016
TTCATATTAT | 0.9472 ± 0.0062
TTCATATTGT | 0.955 ± 0.024
TTCATCCGTA | 1.39 ± 0.23
TTCATCGTCT | 1.01 ± 0.042
TTCATGCCTG | 1.12 ± 0.092
TTCATGGGAG | 0.99 ± 0.022
TTCATGGGG | 0.9879 ± 0.0094
TTCATGTGTT | 1.04 ± 0.037
TTCATTCATG | 0.97 ± 0.0033
TTCATTGTTT | 1.01 ± 0.02
TTCATTTTTT | 1.02 ± 0.041
TTCCAAGACA | 1.01 ± 0.026
TTCCAATAAG | 1.01 ± 0.02
